Holding throughout (assay): MST
What all share (conditions): both partners purified

In one test the target is T1, MltA (P. aeruginosa PAO1, UniProt Q9I4B6 1-385).
T1 sequence (looked up): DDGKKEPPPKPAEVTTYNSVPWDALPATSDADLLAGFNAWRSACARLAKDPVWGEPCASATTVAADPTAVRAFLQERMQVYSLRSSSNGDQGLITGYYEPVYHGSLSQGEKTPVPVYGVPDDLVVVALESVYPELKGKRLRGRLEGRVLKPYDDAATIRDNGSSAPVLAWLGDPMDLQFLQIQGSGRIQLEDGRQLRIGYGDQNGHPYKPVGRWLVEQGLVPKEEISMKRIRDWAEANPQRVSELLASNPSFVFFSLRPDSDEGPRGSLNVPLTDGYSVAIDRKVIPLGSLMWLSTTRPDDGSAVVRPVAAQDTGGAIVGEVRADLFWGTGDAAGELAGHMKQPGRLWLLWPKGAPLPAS

The next test addresses PBP1a (P. aeruginosa PAO1, UniProt Q07806 27-822).
The target in a further test is T2, MltB (P. aeruginosa PAO1, UniProt Q9HVX3 1-367).
T2 sequence (looked up): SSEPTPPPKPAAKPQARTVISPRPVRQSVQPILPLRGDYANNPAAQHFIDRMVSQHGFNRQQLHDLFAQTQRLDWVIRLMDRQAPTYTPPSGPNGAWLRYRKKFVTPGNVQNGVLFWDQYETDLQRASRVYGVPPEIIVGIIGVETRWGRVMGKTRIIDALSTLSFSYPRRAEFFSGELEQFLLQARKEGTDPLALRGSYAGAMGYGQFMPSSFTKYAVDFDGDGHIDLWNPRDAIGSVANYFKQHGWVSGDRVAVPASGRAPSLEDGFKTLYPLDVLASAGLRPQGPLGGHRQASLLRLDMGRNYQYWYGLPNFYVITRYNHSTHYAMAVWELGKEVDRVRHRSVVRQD

For the next test, the target named is MltF (P. aeruginosa PAO1, UniProt Q9HXN1 33-490).
A further test addresses T3, SltB2 (P. aeruginosa PAO1, UniProt Q9I4G6 1-398).
T3 sequence (looked up): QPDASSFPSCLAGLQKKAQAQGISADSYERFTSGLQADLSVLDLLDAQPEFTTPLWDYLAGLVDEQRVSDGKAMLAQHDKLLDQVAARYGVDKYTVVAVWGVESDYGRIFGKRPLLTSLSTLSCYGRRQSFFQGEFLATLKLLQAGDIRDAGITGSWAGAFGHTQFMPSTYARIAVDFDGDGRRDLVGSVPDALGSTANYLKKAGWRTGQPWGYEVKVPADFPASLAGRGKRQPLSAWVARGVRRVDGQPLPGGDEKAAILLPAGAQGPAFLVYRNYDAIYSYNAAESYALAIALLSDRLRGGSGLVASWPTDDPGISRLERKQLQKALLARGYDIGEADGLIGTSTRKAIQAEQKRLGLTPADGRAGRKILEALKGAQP

Another test addresses T4, MltD (P. aeruginosa PAO1, UniProt Q9I2T2 1-534).
T4 sequence (looked up): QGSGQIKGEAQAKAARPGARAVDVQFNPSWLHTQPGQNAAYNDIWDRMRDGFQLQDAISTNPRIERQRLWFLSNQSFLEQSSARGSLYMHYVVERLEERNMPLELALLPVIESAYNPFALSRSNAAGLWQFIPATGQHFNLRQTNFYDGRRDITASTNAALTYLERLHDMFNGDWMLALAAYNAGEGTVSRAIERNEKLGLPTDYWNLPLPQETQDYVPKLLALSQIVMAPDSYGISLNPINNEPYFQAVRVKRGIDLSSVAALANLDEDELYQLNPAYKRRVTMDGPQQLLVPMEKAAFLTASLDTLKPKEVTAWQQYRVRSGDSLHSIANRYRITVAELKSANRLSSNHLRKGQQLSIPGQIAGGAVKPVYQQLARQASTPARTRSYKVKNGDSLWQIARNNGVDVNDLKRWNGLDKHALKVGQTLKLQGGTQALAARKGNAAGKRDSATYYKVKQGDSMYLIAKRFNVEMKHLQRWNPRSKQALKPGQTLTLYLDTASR

The target of another test is T5, PBP4 (P. aeruginosa PAO1, UniProt Q9HZG1 1-476).
T5 sequence (looked up): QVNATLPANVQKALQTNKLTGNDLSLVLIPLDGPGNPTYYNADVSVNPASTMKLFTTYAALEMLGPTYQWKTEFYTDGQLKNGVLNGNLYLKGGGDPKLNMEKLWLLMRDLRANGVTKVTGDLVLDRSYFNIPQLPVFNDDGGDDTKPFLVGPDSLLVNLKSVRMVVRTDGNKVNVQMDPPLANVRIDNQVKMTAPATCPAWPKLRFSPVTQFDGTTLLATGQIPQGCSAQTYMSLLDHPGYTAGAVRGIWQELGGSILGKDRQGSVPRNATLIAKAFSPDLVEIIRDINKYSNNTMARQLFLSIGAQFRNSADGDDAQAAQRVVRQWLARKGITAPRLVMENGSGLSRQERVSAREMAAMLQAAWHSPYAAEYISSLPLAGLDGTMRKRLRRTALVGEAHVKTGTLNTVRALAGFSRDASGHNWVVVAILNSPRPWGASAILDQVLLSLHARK

The target in the next test is T6, TypA (P. aeruginosa PAO1, UniProt Q9HU67 1-605).
T6 sequence (looked up): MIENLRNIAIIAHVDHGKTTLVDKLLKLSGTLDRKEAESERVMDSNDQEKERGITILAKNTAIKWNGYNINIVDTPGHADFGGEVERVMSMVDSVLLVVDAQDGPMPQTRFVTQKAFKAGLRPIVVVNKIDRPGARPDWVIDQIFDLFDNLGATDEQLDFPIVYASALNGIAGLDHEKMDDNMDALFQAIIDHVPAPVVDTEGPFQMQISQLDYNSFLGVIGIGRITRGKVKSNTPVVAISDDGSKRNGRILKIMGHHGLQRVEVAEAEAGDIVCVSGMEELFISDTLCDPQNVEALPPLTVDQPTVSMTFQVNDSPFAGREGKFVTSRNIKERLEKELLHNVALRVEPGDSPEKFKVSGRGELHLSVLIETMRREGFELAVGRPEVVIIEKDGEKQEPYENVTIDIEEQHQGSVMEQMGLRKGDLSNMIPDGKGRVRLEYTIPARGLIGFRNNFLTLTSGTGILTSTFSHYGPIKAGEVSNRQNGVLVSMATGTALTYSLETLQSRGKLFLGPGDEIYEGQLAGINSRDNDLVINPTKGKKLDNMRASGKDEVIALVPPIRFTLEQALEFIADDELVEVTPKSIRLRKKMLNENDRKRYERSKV

For the next test, the target named is T7, MltF2 (P. aeruginosa PAO1, UniProt Q9HZY1 1-476).
T7 sequence (looked up): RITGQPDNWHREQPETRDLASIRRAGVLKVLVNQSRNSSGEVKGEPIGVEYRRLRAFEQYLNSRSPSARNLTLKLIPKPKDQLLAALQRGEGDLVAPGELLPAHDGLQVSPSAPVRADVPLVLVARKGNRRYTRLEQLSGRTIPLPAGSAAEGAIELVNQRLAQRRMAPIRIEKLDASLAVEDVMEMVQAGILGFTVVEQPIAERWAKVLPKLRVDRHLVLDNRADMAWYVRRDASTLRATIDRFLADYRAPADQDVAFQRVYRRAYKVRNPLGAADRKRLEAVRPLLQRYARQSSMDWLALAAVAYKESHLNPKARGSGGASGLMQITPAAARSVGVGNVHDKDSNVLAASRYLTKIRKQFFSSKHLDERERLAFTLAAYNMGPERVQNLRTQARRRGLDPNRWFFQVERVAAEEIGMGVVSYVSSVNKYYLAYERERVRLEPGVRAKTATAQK

Chain of MltF (Q9HXN1 33-490): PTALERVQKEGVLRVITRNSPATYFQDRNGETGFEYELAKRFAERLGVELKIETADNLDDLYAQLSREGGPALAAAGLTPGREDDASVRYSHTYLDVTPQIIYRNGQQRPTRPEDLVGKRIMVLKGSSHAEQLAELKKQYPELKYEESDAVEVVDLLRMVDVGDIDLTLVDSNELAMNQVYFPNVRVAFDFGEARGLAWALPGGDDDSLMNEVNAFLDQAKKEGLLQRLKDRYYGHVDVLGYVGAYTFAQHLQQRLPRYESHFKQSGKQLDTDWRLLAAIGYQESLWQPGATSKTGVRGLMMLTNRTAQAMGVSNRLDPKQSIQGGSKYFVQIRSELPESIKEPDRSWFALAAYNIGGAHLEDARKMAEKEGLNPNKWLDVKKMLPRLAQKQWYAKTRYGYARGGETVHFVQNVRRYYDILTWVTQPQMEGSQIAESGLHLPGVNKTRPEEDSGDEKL
Chain of PBP1a (Q07806 27-822): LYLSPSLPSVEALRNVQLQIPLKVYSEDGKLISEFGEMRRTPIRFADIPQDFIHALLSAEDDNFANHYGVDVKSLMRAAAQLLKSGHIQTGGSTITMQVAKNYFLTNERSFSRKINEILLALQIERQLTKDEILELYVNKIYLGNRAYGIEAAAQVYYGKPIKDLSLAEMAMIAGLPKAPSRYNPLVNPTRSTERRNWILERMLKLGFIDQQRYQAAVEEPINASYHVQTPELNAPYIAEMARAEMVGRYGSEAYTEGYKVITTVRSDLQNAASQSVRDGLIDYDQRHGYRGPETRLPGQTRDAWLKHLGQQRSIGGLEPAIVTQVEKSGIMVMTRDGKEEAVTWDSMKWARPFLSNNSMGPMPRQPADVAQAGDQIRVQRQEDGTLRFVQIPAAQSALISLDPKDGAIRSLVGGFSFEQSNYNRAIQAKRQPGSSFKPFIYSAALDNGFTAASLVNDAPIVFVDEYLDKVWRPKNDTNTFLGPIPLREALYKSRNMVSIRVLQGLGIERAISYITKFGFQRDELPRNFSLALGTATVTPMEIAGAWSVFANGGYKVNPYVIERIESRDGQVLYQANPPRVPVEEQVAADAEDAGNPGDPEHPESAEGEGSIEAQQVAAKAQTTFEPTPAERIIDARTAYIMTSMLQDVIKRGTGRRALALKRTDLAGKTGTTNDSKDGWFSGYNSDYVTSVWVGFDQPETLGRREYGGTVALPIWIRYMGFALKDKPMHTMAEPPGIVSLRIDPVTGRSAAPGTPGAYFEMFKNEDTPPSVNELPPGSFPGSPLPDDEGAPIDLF

B1: RlpA-Δ32, fluorescently labeled (domain or fragment)
chain: PQQPARQAGISGPGDYSRPHRDGAPWWDVDVSRIPDAVPMPHNGSVKANPYTVLGKTYYPMNDARAYRMVGTASWYGTKFHGQATANGETYDLYGMTAAHKTLPLPSYVRVTNLDNGKSVIVRVNDRGPFYSDRVIDLSFAAAKKLGYAETGTARVKVEGIDPVQWWAQRGRPAPMVLAQPKQAVAQAAPAAAQTQAVAMAQPIETYTPPPAQHAAAVLPVQIDSKKNASLPADGLYLQVGAFANPDAAELLKAKLSGVTAAPVFISSVVRNQQILHRVRLGPIGSADEVSRTQDSIRVANLGQPTLVRPD
modifications: amine reactive RED-NHS dye
notes: source: E. coli BL21-star (DE3), purified (Ni-NTA), labelled with RED-NHS dye
Consider B1, for which the Kd with MltA stood at 67 nM; with PBP1a it was 92 nM; in the test with MltB it was 96 nM; with MltF, 101 nM; with SltB2, 110 nM; in the test with MltD, 240 nM. The Kd stood at 550 nM with PBP4, 1000 nM with TypA and 12 nM in the test with MltF2.

The values above are taken from article PMC9712689 (Communications Biology, 2022).
